Target: human α2(I) procollagen (human) (UniProt P08123)
Experiment: cell-based or functional assay

human α2(I) procollagen (human), sequence (P08123 23-1366 limits assumed): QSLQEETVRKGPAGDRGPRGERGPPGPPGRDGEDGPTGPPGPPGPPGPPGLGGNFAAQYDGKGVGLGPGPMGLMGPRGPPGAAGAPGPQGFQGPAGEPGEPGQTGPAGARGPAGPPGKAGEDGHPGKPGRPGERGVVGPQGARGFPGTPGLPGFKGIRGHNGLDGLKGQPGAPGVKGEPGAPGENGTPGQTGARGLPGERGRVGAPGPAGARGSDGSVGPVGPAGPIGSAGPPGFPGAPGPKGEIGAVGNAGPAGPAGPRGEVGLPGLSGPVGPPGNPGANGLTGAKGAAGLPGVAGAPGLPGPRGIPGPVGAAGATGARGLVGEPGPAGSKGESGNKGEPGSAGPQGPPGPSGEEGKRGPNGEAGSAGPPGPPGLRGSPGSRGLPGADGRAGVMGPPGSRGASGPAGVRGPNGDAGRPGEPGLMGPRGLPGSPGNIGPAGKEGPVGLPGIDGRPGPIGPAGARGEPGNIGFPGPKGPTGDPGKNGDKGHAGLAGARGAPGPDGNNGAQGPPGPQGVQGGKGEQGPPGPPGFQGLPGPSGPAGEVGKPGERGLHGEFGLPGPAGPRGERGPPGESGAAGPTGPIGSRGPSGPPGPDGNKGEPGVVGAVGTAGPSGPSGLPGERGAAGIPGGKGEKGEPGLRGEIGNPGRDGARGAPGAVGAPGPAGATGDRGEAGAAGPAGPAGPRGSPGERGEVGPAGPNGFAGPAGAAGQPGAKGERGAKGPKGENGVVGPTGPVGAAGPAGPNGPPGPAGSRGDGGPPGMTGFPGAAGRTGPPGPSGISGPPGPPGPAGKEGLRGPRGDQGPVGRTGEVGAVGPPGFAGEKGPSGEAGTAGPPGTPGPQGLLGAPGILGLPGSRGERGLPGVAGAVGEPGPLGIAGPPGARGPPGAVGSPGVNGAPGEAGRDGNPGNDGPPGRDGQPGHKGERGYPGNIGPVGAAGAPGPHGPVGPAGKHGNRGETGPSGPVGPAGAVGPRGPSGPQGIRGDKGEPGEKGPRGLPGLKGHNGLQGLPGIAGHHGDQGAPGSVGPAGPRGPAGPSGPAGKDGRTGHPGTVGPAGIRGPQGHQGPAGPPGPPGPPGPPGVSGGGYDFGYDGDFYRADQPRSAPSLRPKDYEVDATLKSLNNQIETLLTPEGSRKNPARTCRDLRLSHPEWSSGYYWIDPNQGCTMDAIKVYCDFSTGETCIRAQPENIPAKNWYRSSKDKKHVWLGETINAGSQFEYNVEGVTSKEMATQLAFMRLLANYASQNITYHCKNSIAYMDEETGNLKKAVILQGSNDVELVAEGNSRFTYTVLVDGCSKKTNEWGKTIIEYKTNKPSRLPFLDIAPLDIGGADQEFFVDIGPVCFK

Substance: human α1(I) procollagen (from UniProt P02452 23-1464)
- resistance to pepsin digestion at increasing temperatures (SDS-PAGE): 38 ° C.
